The supplement of paper PMC10724198
Several values for one entry are separate records, joined by “and”; a condition that tells them apart may be missing. Equal entries are not always repeated. ± gives the standard deviation of the averaged measurements.

Experiments:
Saccharomyces cerevisiae [1] = assay: protein stability index of tFT-peptide fusion in wild type (PSI (0-1 scale)); higher = more stable (slower turnover); settings: genetic background: wild type
Saccharomyces cerevisiae [2] = assay: protein stability index of tFT-peptide fusion in deletion strain of DOA10 (PSI (0-1 scale)); higher = more stable (slower turnover)
Method: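 MPS profiling in S. cerevisiae of two library types built from selected 12-aa C-degron peptides (IN1, IN2, LN1, LN3, VN2, R1-R5, W1-W3, Atg1 and Rpa12 C-termini): saturation mutagenesis libraries and C-terminal +1 capping libraries (13 aa). Each peptide is fused to the C-terminus of a sfGFP-mCherry timer, after a GGGS linker. Cells are FACS-sorted into 8 mCherry/sfGFP bins and sequenced. PSI runs from 0 (unstable) to 1 (stable), measured once in wild type and in the das1Δ or doa10Δ background.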

Saccharomyces cerevisiae [3] = assay: protein stability index of tFT-peptide fusion (C-terminal peptide) (PSI (0-1 scale)); higher = more stable (slower turnover)
Method: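 MPS profiling in S. cerevisiae of the tFT-X12 degron library: putative degron peptides plus stable controls, 12 aa, fused to the C-terminus of a sfGFP-mCherry timer. Cells are FACS-sorted into 8 mCherry/sfGFP bins and deep-sequenced. PSI runs from 0 (unstable) to 1 (stable). Backgrounds are wild type, das1Δ and doa10Δ at 30 °C, and wild type, das1Δ, cdc34-1 and cdc53-1 at 37 °C; 2-3 technical replicates each.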

Saccharomyces cerevisiae [4] = assay: as above; settings: genetic background: wild type; temperature: 30 C
Saccharomyces cerevisiae [5] = assay: protein stability index of tFT-peptide fusion in deletion strain of DAS1 (PSI (0-1 scale)); higher = more stable (slower turnover)
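Wherever protein stability index of tFT-peptide fusion (C-terminal peptide) is given: PSI is a weighted mean of sequencing reads over stability bins, variants kept only with over 10 reads, mCherry proximal and sfGFP distal, peptide attached via GGGS linker.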
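Wherever protein stability index of tFT-peptide fusion in deletion strain of DAS1 is given: PSI is a weighted mean of each variant's read distribution over the sorted stability bins, computed only for variants having over 10 reads in total.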
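Wherever protein stability index of tFT-peptide fusion in deletion strain of DOA10 is given: PSI per variant is the weighted mean of its sequencing read distribution over the sorted stability bins, counting only variants with over 10 reads summed across bins.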
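Wherever protein stability index of tFT-peptide fusion in wild type is given: PSI derived as read-weighted mean over the 8 sorting bins, only variants exceeding 10 total reads kept, mCherry placed adjacent to the peptide and sfGFP distal.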

Sequence | protein stability index (Saccharomyces cerevisiae [1]) | protein stability index (Saccharomyces cerevisiae [2]) | protein stability index (Saccharomyces cerevisiae [5]) | also measured
RCTRLDAIYFRI | 0.46 | 0.674 |  | 
CLVKLPILLFFR | 0.06 | 0.6 |  | 
RVQRLDAIYFRI | 0.426 | 0.666 |  | 
GLYMCSVGCFFR | 0.408 | 0.632 |  | 
RQLRVLLPLYFR | 0.216 | 0.665 |  | 
RSLRVLNPLYFR | 0.359 | 0.684 |  | 
GLYMCAVGCWFR | 0.279 | 0.54 |  | 
RSLRVLLPLTFR | 0.379 | 0.671 |  | 
GLYMCSVSCWFR | 0.338 | 0.446 |  | 
GLYMCSVGCTFR | 0.609 | 0.64 |  | 
GLYMCSPGCWFR | 0.246 | 0.679 |  | 
CLVSLPIVLFFR | 0.0839 | 0.581 |  | 
RSLRVTLPLYFR | 0.159 | 0.676 |  | 
RSLRVLLPLYFL | 0.319 | 0.516 |  | 
GLIMCSVGCWFR | 0.197 | 0.39 |  | 
AITLWMCPLLLR | 0.267 | 0.611 |  | 
CLTSLPILLFFR | 0.0745 | 0.636 |  | 
RSLRVLLHLYFR | 0.254 | 0.605 |  | 
AITLPMCPLLLRN | 0.281 | 0.659 |  | 
ELVSLPILLFFR | 0.0794 | 0.633 |  | 
CLVSLPILPFFR | 0.0842 | 0.679 |  | 
GLYMCSVGAWFR | 0.451 | 0.667 |  | 

Sequence | protein stability index (Saccharomyces cerevisiae [1]) | protein stability index (Saccharomyces cerevisiae [2]) | protein stability index (Saccharomyces cerevisiae [5]) | also measured
SSLRVLLPLYFR | 0.252 | 0.679 |  | 
VLVSLPILLFFR | 0.0972 | 0.56 |  | 
CLVSLPILVFFR | 0.0876 | 0.512 |  | 
RVTRLDIIYFRI | 0.271 | 0.645 |  | 
QLVSLPILLFFR | 0.0846 | 0.647 |  | 
CLVSLPILLHFR | 0.286 | 0.655 |  | 
RVTRLDAIYVRI | 0.469 | 0.635 |  | 
CLVSFPILLFFR | 0.0594 | 0.583 |  | 
DLYMCSVGCWFR | 0.453 | 0.697 |  | 
RLTRLDAIYFRI | 0.379 | 0.663 |  | 
RVTRLQAIYFRI | 0.202 | 0.402 |  | 
RVTRLDFIYFRI | 0.171 | 0.596 |  | 
KKHKKGQKQKIN | 0.113 and 0.11 |  | 0.66 and 0.611 | protein stability index (Saccharomyces cerevisiae [3]; genetic background: cdc34-1, temperature: 37 C): 0.535 ± 0.036; protein stability index (Saccharomyces cerevisiae [3]; genetic background: cdc53-1, temperature: 37 C): 0.694 ± 0.011; protein stability index (Saccharomyces cerevisiae [3]; genetic background: das1 deletion, temperature: 30 C): 0.622 ± 0.04; protein stability index (Saccharomyces cerevisiae [3]; genetic background: das1 deletion, temperature: 37 C): 0.725 ± 0.021; protein stability index (Saccharomyces cerevisiae [3]; genetic background: doa10 deletion, temperature: 30 C): 0.0638 ± 0.032; protein stability index (Saccharomyces cerevisiae [3]; genetic background: wild type, temperature: 30 C): 0.0729 ± 0.029; protein stability index (Saccharomyces cerevisiae [3]; genetic background: wild type, temperature: 37 C): 0.149 ± 0.11; protein stability index (Saccharomyces cerevisiae [4]): 0.175 ± 0.039
FSMRWTFRFWVN | 0.052 |  | 0.419 | 
LKILRQLMNHQN | 0.219 |  | 0.665 | 
LVVYLPCVACIN | 0.119 |  | 0.202 | 
PDKRNHLRKLLN | 0.205 |  | 0.574 | 
CTSCCYKFRTNN | 0.211 |  | 0.661 | 
VRGAQGGWRLVG | 0.191 |  | 0.701 | 
CTSCGYKFRGNN | 0.682 |  | 0.686 | 
RLIQPLPVQFLND | 0.652 |  | 0.671 | 
CTSCGYKFRYNN | 0.369 |  | 0.702 | 

Sequence | protein stability index (Saccharomyces cerevisiae [1]) | protein stability index (Saccharomyces cerevisiae [2]) | protein stability index (Saccharomyces cerevisiae [5]) | also measured
LKILRQKDNHQN | 0.664 |  | 0.666 | 
KKHKKGQKQMIN | 0.117 |  | 0.591 | 
VRGAVGGMRLVG | 0.592 |  | 0.677 | 
CTSCGYKFRWNN | 0.49 |  | 0.737 | 
PALAASFWRVVG | 0.178 |  | 0.687 | 
KKHKKGPKQKIN | 0.175 |  | 0.603 | 
KKHKKGQNQKIN | 0.191 |  | 0.625 | 
CTSCGQKFRTNN | 0.448 |  | 0.686 | 
HKILRQKMNHQN | 0.168 |  | 0.683 | 
CTSCGYKFRKNN | 0.23 |  | 0.692 | 
RLIQPLPVQFLNM | 0.584 |  | 0.655 | 
RLIQPLPVAFLN | 0.0928 |  | 0.552 | 
YVVYLSCVACIN | 0.0134 |  | 0.0254 | 
SDKRNHLIKLLN | 0.156 |  | 0.607 | 
PSLAASFWRVVW | 0.637 |  | 0.683 | 
PSLAGSFWRVVG | 0.152 |  | 0.667 | 
FSMRWTFRYYVN | 0.0506 |  | 0.482 | 
FSMRWTFRYHVN | 0.035 |  | 0.472 | 
ARWNVGLWRGAS | 0.322 |  | 0.662 | 
CTSCGYKFYTNN | 0.374 |  | 0.701 | 
SSLAASFWRVVG | 0.16 |  | 0.692 | 
CTSCGYKFRHNN | 0.555 |  | 0.705 | 

Sequence | protein stability index (Saccharomyces cerevisiae [1]) | protein stability index (Saccharomyces cerevisiae [2]) | protein stability index (Saccharomyces cerevisiae [5]) | also measured
VYGAVGGWRLVG | 0.137 |  | 0.677 | 
VRGAVGGWRNVG | 0.364 |  | 0.676 | 
RRGAVGGWRLVG | 0.16 |  | 0.687 | 
PSLAAAFWRVVG | 0.142 |  | 0.702 | 
FSMRWAFRYWVN | 0.115 |  | 0.58 | 
ARWRVGLYRGAS | 0.683 |  | 0.641 | 
LVYYLSCVACIN | 0.0126 |  | 0.0331 | 
LKILDQKMNHQN | 0.648 |  | 0.691 | 
LEVYLSCVACIN | 0.0193 |  | 0.0737 | 
VRGHVGGWRLVG | 0.131 |  | 0.672 | 
ARWRVGLWRGAY | 0.598 |  | 0.682 | 
PDKRNHIIKLLN | 0.132 |  | 0.57 | 
LDKRNHLIKLLN | 0.137 |  | 0.599 | 
FSMRWTFRIWVN | 0.0523 |  | 0.288 | 
FSMRWTFRYWVY | 0.0725 |  | 0.374 | 
CTSCGYKFRTRN | 0.534 |  | 0.683 | 
LVVYLNCVACIN | 0.0331 |  | 0.0265 | 
PDKRNQLIKLLN | 0.0747 |  | 0.633 | 
PDKRNHLIGLLN | 0.612 |  | 0.609 | 
CTSCGYEFRTNN | 0.64 |  | 0.675 | 
LVVYLSCVACINP | 0.0199 |  | 0.0332 | 
ARWRVGLWRTAS | 0.0835 |  | 0.684 | 
